Test results from PMC9402439, “Reconstitution of a telomeric replicon organized by CST”.

Molecular target: CTC1 (CST subunit);STN1 (CST subunit);TEN1 (CST subunit);Polα-primase, endogenous, co-purified with CST (Homo sapiens;Homo sapiens;Homo …, UniProt Q2NKJ3;Q9H668;Q86WV5;P09884;Q14181;P49642;P49643 …, |||)
Assay: EMSA; Kd,app shown only in figure; CST EMSA: 20 mM HEPES-NaOH pH 8.0, 150 mM NaCl, 2 mM MgCl2, 0.2 mM EGTA, 0.1% NP-40, 10% glycerol, 1 mM DTT, 2 h on ice, 0.7% agarose 1x TBE gel at 4 °C; POT1-TPP1N EMSA: C-strand synthesis buffer, 30 min at 30 °C
Settings: protein: recombinant;recombinant;recombinant;native; tags: N-terminal 3xFLAG;N-terminal Myc;N-terminal HA;; copies: 1;1;1;1;1;1;1; label: 5'-32P; folds into G-quadruplex in KCl and NaCl, not LiCl

B1: 15xTEL (ssDNA)
DNA: TTAGGGTTAGGGTTAGGGTTAGGGTTAGGGTTAGGGTTAGGGTTAGGGTTAGGGTTAGGGTTAGGGTTAGGGTTAGGGTTAGGGTTAGGG
binding result: binds

B2: 9xTEL (ssDNA)
DNA: TTAGGGTTAGGGTTAGGGTTAGGGTTAGGGTTAGGGTTAGGGTTAGGGTTAGGG
binding result: binds
